Changes are numbered by the printed parent chain.

Sequences and labels used below:
T1: human BCMA on BCMA expressing cell lines (human, UniProt Q02223 1-184)
T1 sequence: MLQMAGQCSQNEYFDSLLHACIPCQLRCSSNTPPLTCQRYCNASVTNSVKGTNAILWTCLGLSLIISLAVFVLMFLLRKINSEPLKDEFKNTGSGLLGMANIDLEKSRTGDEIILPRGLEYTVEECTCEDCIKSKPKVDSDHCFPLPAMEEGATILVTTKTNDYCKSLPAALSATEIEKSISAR

T2: human BCMA protein (human, UniProt Q02223 1-54, limits assumed)
T2 sequence: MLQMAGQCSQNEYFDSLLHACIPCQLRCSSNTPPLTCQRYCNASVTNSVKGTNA

B1: BCMA targeting trispecific protein 01G09 (other)
VHH: EVQLVESGGGLVQPGRSLTLSCAASTNIFNISPMGWYRQAPGKQRELVAAIHGFSTYYADSVKGRFTISRDNAKNSIYLQMNSLRPEDTALYYCNKVPWGRYHPRNVYWGQGTQVTVSS
notes: trispecific; not shown: anti-albumin domain, anti-CD3 domain and the linkers of the trispecific; the C-terminal His6 that follows them is left out
B2: BCMA targeting trispecific protein 02B07 (other)
VHH: B1 VHH with N30S, I31S, F54H, Y57L, R101D, Y108T
notes: trispecific; not shown: anti-albumin domain, anti-CD3 domain and the linkers of the trispecific (TriTAC) format
B3: BCMA targeting trispecific protein 02C05 (other)
VHH: B1 VHH with N30S, I31E, S55T, Y57L, R101D, Y108T
notes: trispecific; not shown: anti-albumin domain, anti-CD3 domain and the linkers of the trispecific (TriTAC) chain; the C-terminal 6xHis tag follows these missing domains and is left out
B4: BCMA targeting trispecific protein 02F03 (other, not shown: large carriers; small tags and cut ends)
VHH: B1 VHH with N30S, S32Y, F54S, Y57L, R101D, R105K
notes: trispecific
B5: BCMA targeting trispecific protein 02A07 (other, not shown: large carriers; small tags and cut ends)
VHH: B1 VHH with N30S, I31K, F54N, Y57L, R101D, N106E
notes: trispecific
B6: BCMA targeting trispecific protein 02C03 (other)
VHH: B1 VHH with F29A, N30S, F54S, Y57L, R101D, R105G
notes: trispecific; not shown: the C-terminal His6 follows those missing domains and is left out
B7: BCMA targeting trispecific protein 02B04 (other)
VHH: B1 VHH with N30S, I31T, Y57I, R101D, R105L
notes: trispecific; not shown: the C-terminal 6xHis tag follows those missing domains and is left out
B8: BCMA targeting trispecific protein 02E09 (other, not shown: large carriers; small tags and cut ends)
VHH: B1 VHH with I28D, N30S, F54G, Y57L, R101D, Y108A
notes: trispecific
B9: BCMA targeting trispecific protein 01H04 (other)
VHH: B1 VHH with N30S, I31K, F54Q, Y57L, R101D, Y108T
notes: as for B2
B10: BCMA targeting trispecific protein 02A04 (other)
VHH: B1 VHH with N30S, I31Q, F54K, Y57L, R101D, R105S, Q111K
notes: trispecific; not shown: The C-terminal 6xHis tag is left out because it follows these missing domains
B11: BCMA targeting trispecific protein 02F12 (other, not shown: large carriers; small tags and cut ends)
VHH: B1 VHH with F29E, N30S, F54T, Y57L, R101D, R105G
notes: trispecific
B12: BCMA targeting trispecific protein 01H10 (other)
VHH: B1 VHH with F29P, N30S, F54E, Y57L, R101D
notes: as for B10
B13: BCMA targeting trispecific protein 02D06 (other, not shown: large carriers; small tags and cut ends)
VHH: B1 VHH with F29S, N30S, Y57V
notes: trispecific
B14: BCMA targeting trispecific protein 01H01 (other, not shown: large carriers; small tags and cut ends)
VHH: B1 VHH with F29G, N30S, F54Q, Y57L, R101D, R105Q
notes: trispecific
B15: BCMA targeting trispecific protein 02B11 (other)
VHH: B1 VHH with F29V, N30S, F54D, Y57L, R101D, Y108S
notes: as for B2
B16: BCMA targeting trispecific protein 02E03 (other)
VHH: B1 VHH with N30S, I31N, F54P, Y57L, R101D, Y108T
notes: as for B3
B17: BCMA targeting trispecific protein 02B01 (other, not shown: large carriers; small tags and cut ends)
VHH: B1 VHH with N30S, I31N, F54R, Y57L, R101D, Y108M
notes: trispecific
B18: BCMA targeting trispecific protein 01G10 (other, not shown: large carriers; small tags and cut ends)
VHH: B1 VHH with I28E, N30S, F54L, Y57L, R101A
notes: trispecific
B19: BCMA targeting trispecific protein 02A08 (other, not shown: large carriers; small tags and cut ends)
VHH: B1 VHH with N30S, I31R, F54E, Y57L, R105G
notes: trispecific
B20: BCMA targeting trispecific protein 02A05 (other, not shown: large carriers; small tags and cut ends)
VHH: B1 VHH with F29A, N30S, F54K, Y57L, R101D, R105G
notes: trispecific
B21: BCMA targeting trispecific protein 02F05 (other, not shown: large carriers; small tags and cut ends)
VHH: B1 VHH with N30S, I31V, F54N, Y57L, R101K
notes: trispecific
B22: BCMA targeting trispecific protein 01H11 (other, not shown: large carriers; small tags and cut ends)
VHH: B1 VHH with A23V, N30S, I31T, Y57L, R101D, R105G
notes: trispecific
B23: BCMA targeting trispecific protein 02A11 (other)
VHH: B1 VHH with I28H, N30S, F54S, Y57L, R101D, N106V
notes: trispecific; also called 02All; not shown: the C-terminal 6xHis tag follows those domains and is left out
B24: BCMA targeting trispecific protein 02F07 (other)
VHH: B1 VHH with F29E, N30S, Y57L, R101D, R105G
notes: as for B6
B25: BCMA targeting trispecific protein 01G11 (other, not shown: large carriers; small tags and cut ends)
VHH: B1 VHH with F29P, N30S, F54A, Y57L, R101D, Y108A
notes: trispecific
B26: BCMA targeting trispecific protein 02B12 (other, not shown: large carriers; small tags and cut ends)
VHH: B1 VHH with F29S, N30S, S55D, Y57L, R101D
notes: trispecific
B27: BCMA targeting trispecific protein 02C01 (other)
VHH: B1 VHH with F29I, N30S, F54A, Y57L, R101D, R105G
notes: as for B1
B28: BCMA targeting trispecific protein 01H05 (other, not shown: large carriers; small tags and cut ends)
VHH: B1 VHH with N30S, S32T, F54T, Y57L
notes: trispecific
B29: BCMA targeting trispecific protein 02C06 (other, not shown: large carriers; small tags and cut ends)
VHH: B1 VHH with N30S, I31T, F54T, Y57L, R101D, R105G
notes: trispecific
B30: BCMA targeting trispecific protein 02F06 (other, not shown: large carriers; small tags and cut ends)
VHH: B1 VHH with N30S, S32T, F54E, Y57L
notes: trispecific
B31: BCMA targeting trispecific protein 01H09 (other)
VHH: B1 VHH with F29M, N30S, F54N, Y57L, R101D, R105G
notes: as for B6
B32: BCMA targeting trispecific protein 02F11 (other)
VHH: B1 VHH with N30S, I31T, F54T, Y57L, R101D, Y108Q
notes: as for B2
B33: BCMA targeting trispecific protein 02D11 (other)
VHH: B1 VHH with I28E, N30S, F54E, Y57L, R101D, R105G
notes: as for B6

One assay deals with T1, human BCMA on BCMA expressing cell lines. In words: cell-based or functional assay.
In the case of B1, the “TDCC EC50 (EJM cells)” value came out at 0.441 nM.

B2: the “TDCC EC50 (EJM cells)” value was 0.0142 nM.

In the case of B3, the “TDCC EC50 (EJM cells)” value came to 0.0162 nM.

Take B4: the “TDCC EC50 (EJM cells)” value amounted to 0.0245 nM.

For B5, the “TDCC EC50 (EJM cells)” value amounted to 0.0279 nM.

With B6, the “TDCC EC50 (EJM cells)” value was 0.00252 nM.

Turning to B7, the “TDCC EC50 (EJM cells)” value stood at 0.0113 nM.

For B8, the “TDCC EC50 (EJM cells)” value came out at 0.0311 nM.

B9: the “TDCC EC50 (EJM cells)” value amounted to 0.0147 nM.

On to B10, for which the “TDCC EC50 (EJM cells)” value came out at 0.0382 nM.

B11: the “TDCC EC50 (EJM cells)” value was determined as 0.00314 nM.

Turning to B12, the “TDCC EC50 (EJM cells)” value worked out at 0.0352 nM.

In the case of B13, the “TDCC EC50 (EJM cells)” value worked out at 0.0428 nM.

As for B14, the “TDCC EC50 (EJM cells)” value is 0.118 nM.

Consider B15, for which the “TDCC EC50 (EJM cells)” value amounted to 0.0144 nM.

B16: the “TDCC EC50 (EJM cells)” value worked out at 0.0165 nM.

In the case of B17, the “TDCC EC50 (EJM cells)” value came out at 0.0518 nM.

As to B18, the “TDCC EC50 (EJM cells)” value came out at 0.143 nM.

In the case of B19, the “TDCC EC50 (EJM cells)” value came to 0.0201 nM.

Consider B20, for which the “TDCC EC50 (EJM cells)” value was 0.00421 nM.

On to B21, for which the “TDCC EC50 (EJM cells)” value was determined as 0.003 nM.

With B22, the “TDCC EC50 (EJM cells)” value was 0.00317 nM.

B23: the “TDCC EC50 (EJM cells)” value amounted to 0.0606 nM.

As for B24, the “TDCC EC50 (EJM cells)” value was determined as 0.00259 nM.

Take B25: the “TDCC EC50 (EJM cells)” value stood at 0.00398 nM.

As to B26, the “TDCC EC50 (EJM cells)” value stood at 0.124 nM.

With B27, the “TDCC EC50 (EJM cells)” value was 0.00155 nM.

Turning to B28, the “TDCC EC50 (EJM cells)” value is 0.0454 nM.

With B29, the “TDCC EC50 (EJM cells)” value was 0.00195 nM.

Regarding B30, the “TDCC EC50 (EJM cells)” value stood at 0.0193 nM.

Consider B31, for which the “TDCC EC50 (EJM cells)” value is 0.00221 nM.

On to B32, for which the “TDCC EC50 (EJM cells)” value came out at 0.0152 nM.

For B33, the “TDCC EC50 (EJM cells)” value stood at 0.00235 nM.

The target in a further assay is T2, human BCMA protein. Put plainly: affinity to human BCMA protein, method not stated.
Usually Kd stands for the concentration at which binding is half-saturated. The low end stands for higher affinity, the high end for lower affinity. In the case of B1, binding was put at a Kd of 87.8 nM.

Turning to B2, the affinity, expressed as Kd, was 15.8 nM.

For the molecule B3, the Kd was determined as 15.6 nM.

Molecule B4 returned a Kd of 25.7 nM.

Molecule B5 yielded a Kd of 18.4 nM.

B6 yielded a Kd of 7.09 nM.

Regarding B7, the Kd stood at 15.2 nM.

Turning to B8, the affinity, expressed as Kd, was 20.9 nM.

As to B9, the Kd is 17.4 nM.

Take B10: the affinity, expressed as Kd, was 17.6 nM.

In the case of B11, the Kd worked out at 7.76 nM.

In turn, B12 yielded a Kd of 24.8 nM.

For the molecule B13, binding was characterised by a dissociation constant (Kd) of 23.3 nM.

B14 gave an equilibrium dissociation constant (Kd) of 35.9 nM.

In the case of B15, the Kd was determined as 13.3 nM.

The molecule B16 yielded a dissociation constant (Kd) of 16.8 nM.

As for B17, the Kd came to 21.4 nM.

In the case of B18, the Kd stood at 41.9 nM.

B19 had a Kd of 9.51 nM.

In turn, B20 gave a Kd of 7.06 nM.

As to B21, the Kd was 7.15 nM.

In the case of B22, the affinity, expressed as Kd, was 7.06 nM.

Consider B23, for which the affinity, expressed as Kd, was 25.2 nM.

Molecule B24 gave a Kd of 7.06 nM.

B25 yielded a Kd of 9.7 nM.

In the case of B26, the Kd is 25.2 nM.

As for B27, the Kd came to 5.31 nM.

As for B28, the Kd was 27.4 nM.

B29 registered a Kd of 6.9 nM.

B30 registered a Kd of 21.9 nM.

Take B31: binding was characterised by a dissociation constant (Kd) of 5.44 nM.

With B32, binding was put at a Kd of 20 nM.

Molecule B33 registered a Kd of 6.71 nM.

(Values after patent US20240327534A1 (HARPOON THERAPEUTICS, published 2024).)
